The values below come from a protein production outcome set (Wang et al. 2014).

The nature of this data set: label from the status in PepcDB records.
Take “MTAVSSPACAIAGKPPMLSMRDIWLRLHRWLALCLGLFLALLGLSGSLLELKGPILRWEVGAQMLQLAPGEHGTLLQQDAWIRAASDAYPQLHKVFGAAPPRQGFLESDNVIVFGALKERPGTGIAMIDPYSGEPRGFFVFEDLWLAKLVALHRSLLLPPAWGSNLVLLYGLALLGSLGSGLYLWWPGRRSWWKAASLRPGSRGNRRLREWHNVAAAWLCLPLLLIAGSGAWLARPDLFTWPGAQPMAIKPLFSAAHGHLLLGTPGAWLAFLCGISLPLLYLTGLLLWWRKRAARRAVQSFKETSHDTP”: the protein production result is listed as “failed”.
With “MTAYIIVGLTPKDAEKLQQYGARVASTLAKYSGEVLVKGSVEQLHGKFEHKAQVILEFPSREDAYNWYHSEEYQALISTRDLGMDSQFQLIG” the entry was “not failed”; with “MTAYWIAHVTIHDMQQYQEYMKLAPAAFQKYGAKFLARGGESVCVEGQAYQRHVIIEFPDLATAQQCYDSEEYKQARLAREGCADVMISFVEG”, “failed”.
In the case of “MTCLFSDAPIPDHLYGAIVALGNFDGFHLGHQAVVAAAVARGHAEGRPVIVATFDPHPVRFFCPDLPPFALTTIPQRARLFEKAGADATFVIRFSEAMANLSPEEFIQQQIIDHLKAAGVVTGRDFTFGKGRKGGVDLLQAMGQNLNISVDTIMPVCDQQGAISSTRIREALKQGDPETAARLLSRP” it was “failed”; in that of “MTDAAALPGQPRGGVLSGPATRRAVNVLAPNASAMTLDGTNTWIVAEPDSELAVVIDPGPLDDVHLRNVVDTAERAGRRIALTLLTHGHPDHAEGAARFAELTGTNVRALDPALRLGDEGLAPGDVVTVGGLELRVVPTPGHTSDSLCFHLPADRAVLTGDTVLGRGTTVVAHPDGRLGDYLDSLRRLRSLTVDDGVHTVLPGHGPVLDDAQGAVEFYLAHRAHRLAQVETAVENGYRAPAEVVAHVYADVDRSLWPAAELSVRAQMDYLREHGLI”, “failed”.
With “MTDAPADAPLDADARRAVKPVICYPNDSLPRPDLALYRAARASARKTGEVLVPPREGRCFEVKAGQFFRISSVEGPQVGDLNLHNLHDLTERFFSGKTRALHGTHVTTGERLWSNLPYLRPMATIIEDTLGWYGIDQYGGSVHDVIGTRCDPYTGNLLAGGHYHHCCHSNLTRALADHTGLPLHEAEMLVHDVLNVFMCTGFTRDTGQYFMKASPVRPGDYLEFFAEIDLLGNLSACPGGDCSSEHSSDTASCHPLLVEIFAPAEGMLGDWPSPSVNGYDRSHGR” the entry was “not failed”; with “MTDEKKVPSKPARPARKPRADKPADAKPAAVPKVAAPAVVEGSSTNAAAVKKSLRDGGMTALPSEILFAVGSIPLVVDKDALSTLAAALVASDDPSTWFVANRELIRAVVFVPQQNNVLRATPLLSVRPVASLSSVHNWQVRNHLSGLHVVVGGTGAGKSKWLNAQTPDVTIRWGEPGETFDMEESSIAVADLTEMLAVALLLATADYRVVIDSFRNLVFGITGAAGPGGVSVALYAALTSLNNICAELGVLLVAAINPMSSDDKVSLVYNNIAASVAGMTVVNNAAVVSQTIRSGTGRIFSGEPAPRNDSPVEYHEPRHTQLDEPSGPSARIRLESNNIDPDDENDNRPRRGARISL”, “not failed”.
For “MTDFQKQFFARLNIEEKQKVSFEDLSNIMYAMAQTVPFENLNVLEKNFKEISQENLKEKILVNNRGGLCYELNPTMYYFLKDAGFDVYLVSGTVYNAANSIWAVDSGHIATILKHHNELYLIEVGFGSYLPLAPVPFSGEVVQSVTGDYRIRKEMTEKGNYMLEMRKNDEFLDQSSTDDWTLGYAFYIEEVDEKKQMQHKKLLLNTMAHHLTKYLLL”, the protein production result is recorded as “failed”.
In the case of “MTDIFLEGGRALIGTELVETSLSVAGTDIARVDAARGRARLAIDARNLLVLPGIVDLHGDAFERQMMPRAGVDFPIDVALADSDRQAISNGITTVFHATTCSWEPGLRSADNARGLMEAIERQRPQFAADTRFHLRHETYNLDAEAEISRWLAEGRVDLFAFNDHMDGTVADMAKPRKRNRMVERTGLSSEDFDGLVDRVISRAADVPASVSRLAASARAADVRMLSHDDATPAMRREFRELGADIAEFPINEETARAAASHGDAIVYGAPNVVRGGSHTGWTRASDMIAKGLCSVLASDYYYPAQLLAAFRLAADGVLPLTEAWSLVSAEPARAAGLADRGILAEGRRADILLVDDTVPLRPRLVAVISGGKLVHLTDATRLLSAAAAPREAVVAA” it was “failed”.
